In the supplement of paper PMC10126150:
± gives the standard deviation of the averaged measurements.

System: ATP
Assay: switch fluorescence ratio, 500 uM ATP over buffer (Cy3 cluster intensity, sum of 5 cycles each) (fold (ratio)); higher = stronger signal-on switching upon ATP binding; sequences stand for … in TCGTCGGCAGCGTCAGATGTGTATAAGAGACAGTTTTTTTTTTTTTTTTTTTTTTTTT…TC
Conditions: aptamer strand: ATP DNA aptamer (quencher-CACCTGGGGGAGTATTGCGGAGGAAGG + anchor), 100 nM annealed; ATP concentration: 500 uM
How it was run: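 Clusters carrying Cy3-labelled switching strands on a modified Illumina MiSeq flow-cell were annealed to 100 nM quencher-labelled ATP aptamer and imaged in selection buffer. They were imaged again after 15 min with 500 uM ATP at 22 °C, over five buffer/ATP cycles with NaOH stripping and re-annealing in between. For each cluster, the fluorescence ratio is the summed Cy3 intensity of the target cycles divided by that of the buffer cycles, averaged per switch-domain sequence. Clusters outside 100-1000 RFU were left out.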
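Note: ATP exposure 15 min at 22 °C before imaging.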

| Sequence | switch fluorescence ratio |
| --- | --- |
| GGCGGGGTGC | 1.016 ± 0.0073 |
| CAACTTCCCC | 1.22 ± 0.1 |
| TATGGTGAAG | 1 ± 0.024 |
| TATATGTGAT | 0.987 ± 0.017 |
| ATTTGATTGT | 0.98 ± 0.034 |
| CACAGGGGGA | 2.67 ± 1.3 |
| ACTTAGCAGG | 1.08 ± 0.013 |
| TTGGGGACGA | 0.997 ± 0.032 |
| TAGAATCGTT | 0.97 ± 0.05 |
| TGGTGGACGT | 0.997 ± 0.039 |
| AATGGGATTG | 0.972 ± 0.0096 |
| CTAGGGCATA | 1.05 ± 0.047 |
| CCGAGATCTT | 1.03 ± 0.032 |
| TATTAGTAAT | 1.002 ± 0.0032 |
| TATGATGTAA | 1.02 ± 0.049 |
| GCGAATAAGT | 1.02 ± 0.031 |
| GAGATTATGG | 0.966 ± 0.022 |
| GGGCTTGGAG | 1.012 ± 0.00086 |
| TAAAGCGAAC | 1.29 ± 0.098 |
| GCGGGGCTTA | 0.98878 ± 0.00093 |
| AGGAGGACGG | 1.01 ± 0.042 |
| TTTAGTTGCC | 0.984 ± 0.058 |
| AGGGGTGTTG | 0.991 ± 0.032 |

| Sequence | switch fluorescence ratio |
| --- | --- |
| GAAGATAGTG | 0.986 ± 0.03 |
| TTTAAGGTCG | 1.03 ± 0.082 |
| TGAACTCTAG | 1.02 ± 0.059 |
| TGGGAATGGT | 1.01 ± 0.048 |
| AAAGTAGTAA | 1.01 ± 0.037 |
| GGGCCGGTTT | 1 ± 0.026 |
| TGGGAGCAGG | 1.05 ± 0.079 |
| GATGTTTTTT | 1.07 ± 0.14 |
| ACACTATTAT | 1.07 ± 0.033 |
| GAAGGAGAAG | 0.955 ± 0.0083 |
| TGTTGAGTGT | 0.962 ± 0.017 |
| GCGGGGGACT | 0.997 ± 0.016 |
| TTAATGCTAT | 0.9836 ± 0.0043 |
| GACGTATATT | 1.08 ± 0.0067 |
| TCAAGAGATG | 1 ± 0.015 |
| GGGTATTTGT | 1 ± 0.03 |
| ATCTGTGGA | 1.015 ± 0.0024 |
| AAGCATAGGA | 1.02 ± 0.02 |
| CTAGGGCGGA | 1.01 ± 0.021 |
| TTACGGGGGA | 1.03 ± 0.072 |
| AATGACTTAA | 1.01 ± 0.048 |
| TGCAGGAAAC | 1.05 ± 0.036 |
| TTCTCTAGAT | 1.056 ± 0.0066 |

| Sequence | switch fluorescence ratio |
| --- | --- |
| TTTTGATAAT | 0.991 ± 0.016 |
| TAGTTTTATG | 0.959 ± 0.015 |
| GGTATTTAAA | 0.982 ± 0.029 |
| GATGTTTATG | 0.975 ± 0.036 |
| TGCACCGGGG | 1.02 ± 0.016 |
| AAATCGCAGA | 1 ± 0.025 |
| AAGGAAGTGC | 1.003 ± 0.0086 |
| CCAGTCATTT | 1.03 ± 0.027 |
| CGGATTAATT | 0.9862 ± 0.0024 |
| TGGATATGAC | 1 ± 0.015 |
| TAAGGAATCG | 1 ± 0.043 |
| GTGATAAGGT | 1 ± 0.021 |
| CTTAAATTCT | 1.01 ± 0.011 |
| CCGTGGTACC | 1.84 ± 0.12 |
| TTCCTGAAGG | 1.02 ± 0.041 |
| GACTGGATTG | 0.996 ± 0.06 |
| TTAACTGTTT | 0.992 ± 0.019 |
| GGGCAGGTTC | 1.08 ± 0.085 |
| AAGTTAGGGG | 0.9756 ± 0.0084 |
| GGTGGGAAGG | 0.993 ± 0.02 |
| CCACGGACAA | 1.645 ± 0.0082 |
| TCCAAAGAGG | 0.997 ± 0.018 |
| CGCCTAGAGG | 1.02 ± 0.032 |

| Sequence | switch fluorescence ratio |
| --- | --- |
| GCGGTAGTTC | 1.02 ± 0.023 |
| AAGGGGATTG | 0.986 ± 0.042 |
| CGTGGGAGGG | 0.99 ± 0.011 |
| CGGGTGTGTG | 0.981 ± 0.019 |
| CCAGATGGCA | 1.02 ± 0.082 |
| CTGTAGACGG | 1.05 ± 0.014 |
| CCCAGCACGT | 1.37 ± 0.04 |
| CGCAGTTATT | 1.08 ± 0.014 |
| GGGCAAGGCG | 1.006 ± 0.0092 |
| GGGGGTCCAT | 0.954 ± 0.031 |
| CTATTACTTA | 1.02 ± 0.032 |
| TCAAGTAAAG | 1.14 ± 0.23 |
| TTTTTCGCTC | 1.01 ± 0.042 |
| GACGTGTGAG | 0.993 ± 0.034 |
| ACGTGTGGGC | 1.02 ± 0.017 |
| GGTAATGTTT | 1.01 ± 0.014 |
| TTTCGGAAAG | 0.967 ± 0.042 |
| AAAAGGATGG | 0.979 ± 0.021 |
| GTGGCACG | 1.01 ± 0.025 |
| TTGTTTGTGT | 1.02 ± 0.03 |
| TGTTTTTTTA | 0.979 ± 0.024 |
| CATAGGAGGC | 1 ± 0.031 |
| GATTGCATCG | 0.9937 ± 0.0013 |

| Sequence | switch fluorescence ratio |
| --- | --- |
| AAGGCTGGGT | 1.02 ± 0.023 |
| TGGTAGAGTG | 0.987 ± 0.0027 |
| GATGAAGACT | 1 ± 0.067 |
| AGGAGATTTT | 0.957 ± 0.032 |
| GGGACCTTTT | 1 ± 0.032 |
| TTGCCACTCT | 1.04 ± 0.064 |
| ATTTAATCGC | 1.01 ± 0.011 |
| GGGAAACGGG | 0.995 ± 0.011 |
| AGGTTATGGG | 1.04 ± 0.082 |
| TCATGGGCCG | 1.33 ± 0.43 |
| TTCGTGTAAG | 1.02 ± 0.015 |
| TTAATGTTGT | 1 ± 0.035 |
| GCGCAAATCG | 1.009 ± 0.01 |
| TGGTTTTGGG | 0.992 ± 0.021 |
| TCAACGTCAG | 0.9872 ± 0.0048 |
| GACCCTAAC | 1.14 ± 0.016 |
| TGGGGAAAAG | 1.09 ± 0.31 |
| TTGTAAACGA | 1.01 ± 0.042 |
| ATATGATGTA | 0.966 ± 0.014 |
| GGCCCCATGC | 1.24 ± 0.034 |
| GGGTTTGTAT | 0.979 ± 0.046 |
| TTAGCAGGTG | 2.78 ± 0.1 |
| CGCGCGGTGT | 1.17 ± 0.2 |

| Sequence | switch fluorescence ratio |
| --- | --- |
| AGGCAAAGGG | 0.995 ± 0.044 |
| TTTTGACGGA | 0.994 ± 0.027 |
| AATGATCGGG | 1.004 ± 0.0094 |
| TCGGGTGTGT | 0.9889 ± 0.009 |
| CACCGGTTGG | 1.014 ± 0.0044 |
| GTGGTTCGGG | 0.975 ± 0.029 |
| TTCGGTTAGT | 1 ± 0.012 |
| TGAAGGGAAA | 1 ± 0.051 |
| CGTTGAAAGT | 0.991 ± 0.015 |
| TATTCTGCTA | 1.02 ± 0.024 |
| AGGCCCGGAG | 1.05 ± 0.045 |
| AACAGTCGCG | 0.968 ± 0.024 |
| GTTAAAAAGA | 1.08 ± 0.22 |
| ATAAGGTACG | 1.05 ± 0.077 |
| AATGGGGGGA | 0.998 ± 0.057 |
| TATTGACAA | 1.02 ± 0.019 |
| AAAGTGTTCC | 1.03 ± 0.017 |
| GGTATGCAGG | 0.985 ± 0.026 |
| GAGGGAGTCG | 1.01 ± 0.022 |
| TTCTAGGAAT | 1.02 ± 0.059 |
| GCTATGGGAT | 0.995 ± 0.04 |
| ACGGGTTGGG | 1.02 ± 0.017 |
| ATTAGTGTGG | 1 ± 0.033 |

| Sequence | switch fluorescence ratio |
| --- | --- |
| TGTTGAGGGG | 0.964 ± 0.041 |
| AGGTTAATAT | 1 ± 0.043 |
| GGTGTGGGGA | 0.994 ± 0.025 |
| TGAGTGGGTT | 0.975 ± 0.031 |
| GGTTCAGCGC | 1.03 ± 0.041 |
| AGCAGGGAGC | 1.01 ± 0.021 |
| TTAAAGGTAT | 1.11 ± 0.063 |
| ATATGAGGGG | 0.965 ± 0.027 |
| GGATTTGCCA | 0.989 ± 0.038 |
| TTAGGGAAAA | 0.983 ± 0.038 |
| TTTTTTTCAT | 1 ± 0.028 |
| ACAGAGGAGC | 1.062 ± 0.006 |
| GAGTGGGGGA | 0.99 ± 0.023 |
| TTTTCAAGGT | 0.992 ± 0.019 |
| TGGGGGTCGA | 1.01 ± 0.053 |
| GATGCTATTT | 1.004 ± 0.0087 |
| GTGAGCATGT | 1.01 ± 0.024 |
| GTGGTGTGGT | 0.982 ± 0.011 |
| TACGCTATAA | 2.824 ± 0.0042 |
